Data taken from patent publication US20150322128A1 (Sanofi, published 2015).
Numbering of substitutions follows the chain as printed. Where two headings read alike, the source gives them in different places. Numbered stars: 1 amine (or outer) side, 2 acyl side, 3 side chain; on linkers, the order of the positions; unused ones are H or OH. Square brackets hold non-standard residues; d marks the D form. Side chains are listed from the residue outwards. Ends that are not written are not given here. * marks the point of attachment. γGlu = O=C(O)[C@H](CCC(=O)[*:2])N[*:1]; Stearoyl = CCCCCCCCCCCCCCCCCC(=O)*; Palmitoyl = CCCCCCCCCCCCCCCC(=O)*; Aib = CC(C)(N)C(=O)O

Key:
Test in all cases: cell-based or functional assay
human GLP-1 receptor [1] = biological target: T1, human GLP-1 receptor (human, UniProt P43220 24-463)
human GIP receptor [2] = biological target: T2, human GIP receptor (human, UniProt P48546 22-466)
T2 sequence (looked up): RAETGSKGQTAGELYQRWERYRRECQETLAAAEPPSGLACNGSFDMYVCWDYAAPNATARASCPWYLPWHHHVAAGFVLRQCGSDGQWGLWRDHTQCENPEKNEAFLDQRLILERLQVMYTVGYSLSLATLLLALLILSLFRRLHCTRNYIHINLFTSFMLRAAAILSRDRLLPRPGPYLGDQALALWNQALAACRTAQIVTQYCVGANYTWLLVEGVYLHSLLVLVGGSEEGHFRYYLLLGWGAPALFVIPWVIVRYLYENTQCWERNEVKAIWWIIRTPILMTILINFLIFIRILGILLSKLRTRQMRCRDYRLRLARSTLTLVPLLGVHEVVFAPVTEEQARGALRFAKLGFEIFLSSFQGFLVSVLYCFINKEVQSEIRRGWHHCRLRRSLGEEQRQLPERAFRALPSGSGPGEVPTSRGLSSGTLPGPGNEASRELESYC

human glucagon receptor [3] = biological target: T3, human glucagon receptor (human, UniProt P47871 26-477)
T3 sequence (P47871 26-477): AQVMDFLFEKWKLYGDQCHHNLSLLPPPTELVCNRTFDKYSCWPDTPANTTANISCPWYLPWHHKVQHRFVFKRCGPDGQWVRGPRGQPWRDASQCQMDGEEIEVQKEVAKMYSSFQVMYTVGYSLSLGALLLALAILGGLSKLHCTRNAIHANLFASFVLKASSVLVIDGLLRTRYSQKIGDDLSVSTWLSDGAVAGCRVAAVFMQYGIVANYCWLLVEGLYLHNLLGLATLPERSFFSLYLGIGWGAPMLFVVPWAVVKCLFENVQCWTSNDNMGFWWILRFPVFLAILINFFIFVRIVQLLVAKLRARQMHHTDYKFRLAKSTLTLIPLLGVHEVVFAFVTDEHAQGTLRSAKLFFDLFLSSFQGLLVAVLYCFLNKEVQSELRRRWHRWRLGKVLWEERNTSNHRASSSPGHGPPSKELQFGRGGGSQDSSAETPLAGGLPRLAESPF

human GLP-1 receptor [4] = biological target: T1, human GLP-1 receptor; remark: listed apart in the source
human GIP receptor [5] = biological target: T2, human GIP receptor; remark: listed apart in the source
human glucagon receptor [6] = biological target: T3, human glucagon receptor; remark: listed apart in the source

B1: SEQ ID NO: 8 (peptide)
peptide: H[dS]HGTFTSDLSKQK([γGlu-Stearoyl])DEEAARLFIEWL[Aib]AGGPSSGAPPPS-NH2
modifications: N-terminus assumed
SMILES: CCCCCCCCCCCCCCCCCC(=O)N[C@@H](CCC(=O)NCCCC[C@H](NC(=O)[C@H](CCC(N)=O)NC(=O)[C@H](CCCCN)NC(=O)[C@H](CO)NC(=O)[C@H](CC(C)C)NC(=O)[C@H](CC(=O)O)NC(=O)[C@H](CO)NC(=O)[C@@H](NC(=O)[C@H](Cc1ccccc1)NC(=O)[C@@H](NC(=O)CNC(=O)[C@H](Cc1c[nH]cn1)NC(=O)[C@@H](CO)NC(=O)[C@@H](N)Cc1c[nH]cn1)[C@@H](C)O)[C@@H](C)O)C(=O)N[C@@H](CC(=O)O)C(=O)N[C@@H](CCC(=O)O)C(=O)N[C@@H](CCC(=O)O)C(=O)N[C@@H](C)C(=O)N[C@@H](C)C(=O)N[C@@H](CCCNC(=N)N)C(=O)N[C@@H](CC(C)C)C(=O)N[C@@H](Cc1ccccc1)C(=O)N[C@H](C(=O)N[C@@H](CCC(=O)O)C(=O)N[C@@H](Cc1c[nH]c2ccccc12)C(=O)N[C@@H](CC(C)C)C(=O)NC(C)(C)C(=O)N[C@@H](C)C(=O)NCC(=O)NCC(=O)N1CCC[C@H]1C(=O)N[C@@H](CO)C(=O)N[C@@H](CO)C(=O)NCC(=O)N[C@@H](C)C(=O)N1CCC[C@H]1C(=O)N1CCC[C@H]1C(=O)N1CCC[C@H]1C(=O)N[C@@H](CO)C(N)=O)[C@@H](C)CC)C(=O)O
EC50 hGLP-1R (human GLP-1 receptor [1]): 0.0018 nM | EC50 hGIP-R (human GIP receptor [2]): 0.538 nM | EC50 hGlucagon-R (human glucagon receptor [3]): 0.0048 nM

B2: SEQ ID NO: 10 (peptide)
peptide: H[dS]QGTFTSDLSKQK([γGlu-Stearoyl])EEEAVRLFIEWL[Aib]AGGPSSGAPPPS-NH2
modifications: N-terminus assumed
SMILES: CCCCCCCCCCCCCCCCCC(=O)N[C@@H](CCC(=O)NCCCC[C@H](NC(=O)[C@H](CCC(N)=O)NC(=O)[C@H](CCCCN)NC(=O)[C@H](CO)NC(=O)[C@H](CC(C)C)NC(=O)[C@H](CC(=O)O)NC(=O)[C@H](CO)NC(=O)[C@@H](NC(=O)[C@H](Cc1ccccc1)NC(=O)[C@@H](NC(=O)CNC(=O)[C@H](CCC(N)=O)NC(=O)[C@@H](CO)NC(=O)[C@@H](N)Cc1c[nH]cn1)[C@@H](C)O)[C@@H](C)O)C(=O)N[C@@H](CCC(=O)O)C(=O)N[C@@H](CCC(=O)O)C(=O)N[C@@H](CCC(=O)O)C(=O)N[C@@H](C)C(=O)N[C@H](C(=O)N[C@@H](CCCNC(=N)N)C(=O)N[C@@H](CC(C)C)C(=O)N[C@@H](Cc1ccccc1)C(=O)N[C@H](C(=O)N[C@@H](CCC(=O)O)C(=O)N[C@@H](Cc1c[nH]c2ccccc12)C(=O)N[C@@H](CC(C)C)C(=O)NC(C)(C)C(=O)N[C@@H](C)C(=O)NCC(=O)NCC(=O)N1CCC[C@H]1C(=O)N[C@@H](CO)C(=O)N[C@@H](CO)C(=O)NCC(=O)N[C@@H](C)C(=O)N1CCC[C@H]1C(=O)N1CCC[C@H]1C(=O)N1CCC[C@H]1C(=O)N[C@@H](CO)C(N)=O)[C@@H](C)CC)C(C)C)C(=O)O
EC50 hGLP-1R (human GLP-1 receptor [1]): 0.0065 nM | EC50 hGIP-R (human GIP receptor [2]): 0.982 nM | EC50 hGlucagon-R (human glucagon receptor [3]): 0.14 nM

H-HSQGTFTSDLSKQK([γGlu-γGlu-Palmitoyl])DEEAARLFIEWLKAGGPSSGAPPPS-NH2 [SEQ ID NO: 33]
EC50 hGLP-1R (human GLP-1 receptor [4]): 0.001 nM | EC50 hGIP-1 (human GIP receptor [5]): 0.0708 nM | EC50 hGlucagon-R (human glucagon receptor [6]): 0.0014 nM

B3: SEQ ID NO: 27 (peptide)
peptide: H[dS]HGTFTSDLSKQK([γGlu-γGlu-Palmitoyl])EEEAARLFIEWL[Aib]K[dA]GPSSGAPPPS-NH2
modifications: N-terminus assumed
SMILES: CCCCCCCCCCCCCCCC(=O)N[C@@H](CCC(=O)N[C@@H](CCC(=O)NCCCC[C@H](NC(=O)[C@H](CCC(N)=O)NC(=O)[C@H](CCCCN)NC(=O)[C@H](CO)NC(=O)[C@H](CC(C)C)NC(=O)[C@H](CC(=O)O)NC(=O)[C@H](CO)NC(=O)[C@@H](NC(=O)[C@H](Cc1ccccc1)NC(=O)[C@@H](NC(=O)CNC(=O)[C@H](Cc1c[nH]cn1)NC(=O)[C@@H](CO)NC(=O)[C@@H](N)Cc1c[nH]cn1)[C@@H](C)O)[C@@H](C)O)C(=O)N[C@@H](CCC(=O)O)C(=O)N[C@@H](CCC(=O)O)C(=O)N[C@@H](CCC(=O)O)C(=O)N[C@@H](C)C(=O)N[C@@H](C)C(=O)N[C@@H](CCCNC(=N)N)C(=O)N[C@@H](CC(C)C)C(=O)N[C@@H](Cc1ccccc1)C(=O)N[C@H](C(=O)N[C@@H](CCC(=O)O)C(=O)N[C@@H](Cc1c[nH]c2ccccc12)C(=O)N[C@@H](CC(C)C)C(=O)NC(C)(C)C(=O)N[C@@H](CCCCN)C(=O)N[C@H](C)C(=O)NCC(=O)N1CCC[C@H]1C(=O)N[C@@H](CO)C(=O)N[C@@H](CO)C(=O)NCC(=O)N[C@@H](C)C(=O)N1CCC[C@H]1C(=O)N1CCC[C@H]1C(=O)N1CCC[C@H]1C(=O)N[C@@H](CO)C(N)=O)[C@@H](C)CC)C(=O)O)C(=O)O
EC50 hGLP-1R (human GLP-1 receptor [1]): 0.0021 nM | EC50 hGIP-R (human GIP receptor [2]): 3.22 nM | EC50 hGlucagon-R (human glucagon receptor [3]): 0.0554 nM

B4: SEQ ID NO: 17 (peptide)
peptide: H[dS]QGTFTSDLSKQK([γGlu-γGlu-Palmitoyl])DEEAVRLFIEWL[Aib]AGGPSSGAPPPS-NH2
modifications: N-terminus assumed
SMILES: CCCCCCCCCCCCCCCC(=O)N[C@@H](CCC(=O)N[C@@H](CCC(=O)NCCCC[C@H](NC(=O)[C@H](CCC(N)=O)NC(=O)[C@H](CCCCN)NC(=O)[C@H](CO)NC(=O)[C@H](CC(C)C)NC(=O)[C@H](CC(=O)O)NC(=O)[C@H](CO)NC(=O)[C@@H](NC(=O)[C@H](Cc1ccccc1)NC(=O)[C@@H](NC(=O)CNC(=O)[C@H](CCC(N)=O)NC(=O)[C@@H](CO)NC(=O)[C@@H](N)Cc1c[nH]cn1)[C@@H](C)O)[C@@H](C)O)C(=O)N[C@@H](CC(=O)O)C(=O)N[C@@H](CCC(=O)O)C(=O)N[C@@H](CCC(=O)O)C(=O)N[C@@H](C)C(=O)N[C@H](C(=O)N[C@@H](CCCNC(=N)N)C(=O)N[C@@H](CC(C)C)C(=O)N[C@@H](Cc1ccccc1)C(=O)N[C@H](C(=O)N[C@@H](CCC(=O)O)C(=O)N[C@@H](Cc1c[nH]c2ccccc12)C(=O)N[C@@H](CC(C)C)C(=O)NC(C)(C)C(=O)N[C@@H](C)C(=O)NCC(=O)NCC(=O)N1CCC[C@H]1C(=O)N[C@@H](CO)C(=O)N[C@@H](CO)C(=O)NCC(=O)N[C@@H](C)C(=O)N1CCC[C@H]1C(=O)N1CCC[C@H]1C(=O)N1CCC[C@H]1C(=O)N[C@@H](CO)C(N)=O)[C@@H](C)CC)C(C)C)C(=O)O)C(=O)O
EC50 hGLP-1R (human GLP-1 receptor [1]): 0.0024 nM | EC50 hGIP-R (human GIP receptor [2]): 7.08 nM | EC50 hGlucagon-R (human glucagon receptor [3]): 0.0471 nM

H[dS]HGTFTSDLSKQK([γGlu-γGlu-Palmitoyl])DEEAARLFIEWL[Aib]K[dA]GPSSGAPPPS-NH2 [SEQ ID NO: 26]
EC50 hGLP-1R (human GLP-1 receptor [1]): 0.002 nM | EC50 hGIP-R (human GIP receptor [2]): 5.53 nM | EC50 hGlucagon-R (human glucagon receptor [3]): 0.0406 nM

B5: SEQ ID NO: 12 (peptide)
peptide: HXQGTFTSDLSKQKDEEAARLFIEWLXAXGPSSGAPPPS
modifications: D-Ser at 2; Lys 14 side chain K(γE-γE-x53) = (S)-4-Carboxy-4-((S)-4-carboxy-4-hexadecanoylamino-butyrylamino)-butyryl-; Aib at 27; D-Ala at 29; C-terminal amide
EC50 hGLP-1R (human GLP-1 receptor [1]): 0.0028 nM | EC50 hGIP-R (human GIP receptor [2]): 0.336 nM | EC50 hGlucagon-R (human glucagon receptor [3]): 0.066 nM

B6: SEQ ID NO: 24 (peptide)
peptide: B5 peptide with A28K
modifications: D-Ser at 2; Lys 14 side chain K(γE-γE-x53) = (S)-4-Carboxy-4-((S)-4-carboxy-4-hexadecanoylamino-butyrylamino)-butyryl-; Aib at 27; D-Ala at 29; C-terminal amide
EC50 hGLP-1R (human GLP-1 receptor [1]): 0.0024 nM | EC50 hGIP-R (human GIP receptor [2]): 14.1 nM | EC50 hGlucagon-R (human glucagon receptor [3]): 0.0765 nM
